Measured values taken from publication PMC6713331.

Target: FLAG-tagged BVLF1 (Epstein-Barr virus)
Assay: co-IP; FLAG-tagged BVLF1 as bait with BFRF2 together with BGLF3 or BGLF3(T42A) in 2089 cells; anti-FLAG M2 agarose; anti-Myc blot; quantitation from two independent experiments

B1: BFRF2 (natural protein)
chain: MALFLARHTLSGTGAGCHGRGPAPDVSEVDLTLQALGERGFSRLLDLGLACLDLSYVEMREFVVWGRPPASEAAVASTPGSLFRSHSSAYWLSEVERPGGLVRWARSQTSPSSLTLAPHLGPSLLSLSVVTGGGCGAVAFCNAFFLAYFLVVRSVFPAFSDRIAAWICDRSPFCENTRAVARGYRGLVKRFLAFVFERSSYDPPLLRQNSRPVERCFAIKNYVPGLDSQSCVTVPSFSRWAQSHASELDPREIRDRVTPATAPSFVADHASALLASLQKKASDTPCGNPIQWMWYRLLVNSCLRSAHCLLPIPAVSEGGRKTGGGVGEELVGAGGPCLSRDVFVAIVSRNVLSCLLNVPAAGPRAYKCFRSHASRPVSGPDYPPLAVFCMDCGYCLNFGKQTGVGGRLNSFRPTLQFYPRDQKEKHVLTCHASGRVYCSNCGSAAVGCQRLAEPPSARSGWRPRIRAVLPHNAAYELDRGSRLLDAIIPCLGPDRTCMRPVVLRGVTVRQLLYLTLRTEARAVCSICQQRQAPEDARDEPHLFSSCLEVELPPGERCAGCRLYQTRYGTPAAQAHPPGEAGGGFSRQSPAS
  fold increase of the BVLF1-BFRF2 interaction with wild type BGLF3 relative to no BGLF3: 6 fold
